Results from publication PMC10397247.
Values belong to the binder of their own block, whether it stands above or below them.

Experiments:
[1] = molecular target: T1, 4H2944-bH; assay: two-hybrid library CCNG1;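 also: natural log of median RNA to DNA barcode read ratio; higher means stronger binding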
T1 chain: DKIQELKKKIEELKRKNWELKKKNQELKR

[2] = molecular target: T2, 4H2937-bH; assay: two-hybrid library CCNG1;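 also: natural log of median RNA to DNA barcode read ratio; higher means stronger binding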
T2 chain: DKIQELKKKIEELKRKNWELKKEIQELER

[3] = molecular target: T3, 4H491-bH; assay: two-hybrid library CCNG1;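 also: natural log of median RNA to DNA barcode read ratio; higher means stronger binding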
T3 chain: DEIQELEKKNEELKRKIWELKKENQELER

[4] = molecular target: T4, 4H48-bH; assay: two-hybrid library CCNG1;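 also: natural log of median RNA to DNA barcode read ratio; higher means stronger binding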
T4 chain: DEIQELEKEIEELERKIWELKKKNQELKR

[5] = molecular target: T5, 4H2696-bH; assay: two-hybrid library CCNG1;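 also: natural log of median RNA to DNA barcode read ratio; higher means stronger binding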
T5 chain: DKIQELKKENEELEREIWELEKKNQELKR

[6] = molecular target: T6, 4H2883-bH; assay: two-hybrid library CCNG1;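 also: natural log of median RNA to DNA barcode read ratio; higher means stronger binding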
T6 chain: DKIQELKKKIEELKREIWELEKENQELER

[7] = molecular target: T7, 4H342-bH; assay: two-hybrid library CCNG1
T7 chain: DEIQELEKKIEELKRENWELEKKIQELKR

[8] = molecular target: T8, 4H3606-bA; assay: two-hybrid library CCNG1
T8 chain: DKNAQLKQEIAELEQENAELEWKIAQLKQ

[9] = molecular target: T9, 4H72-bA; assay: two-hybrid library CCNG1
T9 chain: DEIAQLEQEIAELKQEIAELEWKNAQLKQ

[10] = molecular target: T10, 4H607-bA; assay: two-hybrid library CCNG1
T10 chain: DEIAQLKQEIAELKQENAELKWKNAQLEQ

[11] = molecular target: T11, 4H2610-bA; assay: two-hybrid library CCNG1
T11 chain: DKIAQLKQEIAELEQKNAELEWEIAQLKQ

[12] = molecular target: T12, 4H3782-bA; assay: two-hybrid library CCNG1
T12 chain: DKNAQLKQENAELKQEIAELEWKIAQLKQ

[13] = molecular target: T13, 4H331-bA; assay: two-hybrid library CCNG1
T13 chain: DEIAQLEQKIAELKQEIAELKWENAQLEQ

[14] = molecular target: T14, 4H3843-bA; assay: two-hybrid library CCNG1
T14 chain: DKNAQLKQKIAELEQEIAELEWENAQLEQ

[15] = molecular target: T15, 4H346-bH; assay: two-hybrid library CCNG1
T15 chain: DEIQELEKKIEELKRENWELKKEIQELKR

[16] = molecular target: T16, 4H370-bA; assay: two-hybrid library CCNG1
T16 chain: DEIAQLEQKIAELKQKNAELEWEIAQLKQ

[17] = molecular target: T17, 4H687-bA; assay: two-hybrid library CCNG1
T17 chain: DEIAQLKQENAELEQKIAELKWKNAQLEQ

[18] = molecular target: T18, 4H568-bA; assay: two-hybrid library CCNG1
T18 chain: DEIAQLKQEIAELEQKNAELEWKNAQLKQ

[19] = molecular target: T19, 4H883-bA; assay: two-hybrid library CCNG1
T19 chain: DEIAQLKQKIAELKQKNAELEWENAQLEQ

[20] = molecular target: T20, 4H953-bA; assay: two-hybrid library CCNG1
T20 chain: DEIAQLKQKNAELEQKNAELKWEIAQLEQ

[21] = molecular target: T21, 4H797-bA; assay: two-hybrid library CCNG1
T21 chain: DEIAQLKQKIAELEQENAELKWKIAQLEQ

[22] = molecular target: T22, 4H462-bA; assay: two-hybrid library CCNG1
T22 chain: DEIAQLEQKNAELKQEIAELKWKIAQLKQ

[23] = molecular target: T23, 4H1845-bA; assay: two-hybrid library CCNG1
T23 chain: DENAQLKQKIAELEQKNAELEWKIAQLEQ

[24] = molecular target: T24, 4H2667-bA; assay: two-hybrid library CCNG1
T24 chain: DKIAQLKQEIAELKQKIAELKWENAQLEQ

[25] = molecular target: T25, 4H4001-bA; assay: two-hybrid library CCNG1
T25 chain: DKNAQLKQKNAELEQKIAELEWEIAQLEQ

[26] = molecular target: T26, 4H1446-bA; assay: two-hybrid library CCNG1
T26 chain: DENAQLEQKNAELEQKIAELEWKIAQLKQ

[27] = molecular target: T27, 4H918-bA; assay: two-hybrid library CCNG1
T27 chain: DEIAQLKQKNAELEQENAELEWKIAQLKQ

[28] = molecular target: T28, 4H1328-bA; assay: two-hybrid library CCNG1
T28 chain: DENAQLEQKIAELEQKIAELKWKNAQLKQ

[29] = molecular target: T29, 4H2697-bA; assay: two-hybrid library CCNG1
T29 chain: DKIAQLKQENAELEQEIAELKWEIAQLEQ

[30] = molecular target: T30, 4H3189-bA; assay: two-hybrid library CCNG1
T30 chain: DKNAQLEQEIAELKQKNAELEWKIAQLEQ

[31] = molecular target: T31, 4H2576-bA; assay: two-hybrid library CCNG1
T31 chain: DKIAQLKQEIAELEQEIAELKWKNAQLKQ

[32] = molecular target: T32, 4H1369-bA; assay: two-hybrid library CCNG1
T32 chain: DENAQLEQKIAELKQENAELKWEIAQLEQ

[33] = molecular target: T33, 4H967-bA; assay: two-hybrid library CCNG1
T33 chain: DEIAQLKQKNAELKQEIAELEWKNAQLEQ

[34] = molecular target: T34, O15; assay: two-hybrid library CC0; conditions: mean of both orientations
T34 chain: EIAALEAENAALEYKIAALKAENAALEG

[35] = molecular target: T35, O3; assay: two-hybrid library CC0; conditions: mean of both orientations
T35 chain: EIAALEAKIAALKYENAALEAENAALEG

[36] = molecular target: T36, O8; assay: two-hybrid library CC0; conditions: mean of both orientations
T36 chain: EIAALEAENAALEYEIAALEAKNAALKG

[37] = molecular target: T37, O12; assay: two-hybrid library CC0; conditions: mean of both orientations
T37 chain: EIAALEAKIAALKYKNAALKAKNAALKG

[38] = molecular target: T38, O16; assay: two-hybrid library CC0; conditions: mean of both orientations
T38 chain: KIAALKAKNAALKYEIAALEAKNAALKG

[39] = molecular target: T39, O14; assay: two-hybrid library CC0; conditions: mean of both orientations
T39 chain: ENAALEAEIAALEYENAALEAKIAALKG

[40] = molecular target: T40, O2; assay: two-hybrid library CC0; conditions: mean of both orientations
T40 chain: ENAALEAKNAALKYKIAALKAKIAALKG

[41] = molecular target: T41, O10; assay: two-hybrid library CC0; conditions: mean of both orientations
T41 chain: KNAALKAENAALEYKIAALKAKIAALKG

[42] = molecular target: T42, O7; assay: two-hybrid library CC0; conditions: mean of both orientations
T42 chain: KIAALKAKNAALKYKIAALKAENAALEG

[43] = molecular target: T43, O5; assay: two-hybrid library CC0; conditions: mean of both orientations
T43 chain: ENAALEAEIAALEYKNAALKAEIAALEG

[44] = molecular target: T44, O13; assay: two-hybrid library CC0; conditions: mean of both orientations
T44 chain: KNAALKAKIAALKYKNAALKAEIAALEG

[45] = molecular target: T45, O9; assay: two-hybrid library CC0; conditions: mean of both orientations
T45 chain: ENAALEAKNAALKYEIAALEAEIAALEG

[46] = molecular target: T46, O11; assay: two-hybrid library CC0; conditions: mean of both orientations
T46 chain: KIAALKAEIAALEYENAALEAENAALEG

[47] = molecular target: T47, O6; assay: two-hybrid library CC0; conditions: mean of both orientations
T47 chain: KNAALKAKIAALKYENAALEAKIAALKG

[48] = molecular target: T48, O4; assay: two-hybrid library CC0; conditions: mean of both orientations
T48 chain: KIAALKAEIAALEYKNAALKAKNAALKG

- interaction score [1]: -0.0809
- interaction score [2]: 1.47
- interaction score [3]: 1.73
- interaction score [4]: 1.04
- interaction score [5]: 0.576
- interaction score [6]: 1.5
- interaction score [7]: 0.972
Binder: DKIQELKKENEELEREIWELEKKNQELKR [4H2696-bH]

- interaction score [8]: 0.221
- interaction score [9]: 1.25
- interaction score [10]: -0.918
- interaction score [11]: -0.633
- interaction score [12]: 0.142
- interaction score [13]: 1.02
- interaction score [14]: 1.8
- interaction score [15]: 0.114
- interaction score [16]: -0.958
- interaction score [17]: -0.983
- interaction score [18]: -0.0125
- interaction score [19]: -0.916
- interaction score [20]: -0.977
- interaction score [21]: -1.68
- interaction score [22]: -0.405
- interaction score [23]: -0.257
- interaction score [24]: 0.432
- interaction score [25]: 1.48
- interaction score [26]: 0.372
- interaction score [27]: -0.412
- interaction score [28]: 1.62
- interaction score [29]: 0.429
- interaction score [30]: -0.907
- interaction score [31]: 1.95
- interaction score [32]: -0.903
- interaction score [33]: -0.292
Binder: DENAQLEQKIAELEQKIAELKWKNAQLKQ [4H1328-bA]

Binder: KNAALKAENAALEYKIAALKAKIAALKG [O10]
- interaction score [34]: -2.76
- interaction score [35]: -2.6
- interaction score [36]: -2.5
- interaction score [37]: -2.82
- interaction score [38]: -2.56
- interaction score [39]: -2.57
- interaction score [40]: -1.28
- interaction score [41]: -2.67
- interaction score [42]: -2.72
- interaction score [43]: -1.82
- interaction score [44]: -2.76
- interaction score [45]: 1.47
- interaction score [46]: -2.65
- interaction score [47]: -2.76
- interaction score [48]: -2.63
